The values below come from patent US20030077318A1.

Experiment [1] has as its target T1, soluble H-2K^b (K^bsol), heterodimer of truncated K^b heavy chain and murine β-2 microglobulin, purified empty from Drosophila cells (murine), P01901.
T1 chain 1: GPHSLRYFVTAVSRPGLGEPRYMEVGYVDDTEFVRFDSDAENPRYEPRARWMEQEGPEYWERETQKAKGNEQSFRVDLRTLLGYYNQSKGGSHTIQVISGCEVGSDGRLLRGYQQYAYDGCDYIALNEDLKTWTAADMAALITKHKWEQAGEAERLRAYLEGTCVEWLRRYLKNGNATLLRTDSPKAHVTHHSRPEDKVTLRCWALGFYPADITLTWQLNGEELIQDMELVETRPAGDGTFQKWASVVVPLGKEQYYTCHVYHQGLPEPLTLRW
T1 chain 2: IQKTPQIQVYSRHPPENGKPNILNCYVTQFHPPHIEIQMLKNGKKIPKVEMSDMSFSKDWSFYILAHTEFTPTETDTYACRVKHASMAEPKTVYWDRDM
As to the kind of experiment: competitive RIA against [^125I]VSV-8 on K^bsol, P30 gel filtration, 23° C. A general note: SEC sorts molecules by how far they enter the pores of the column.

Experiment [2] deals with T1, soluble H-2K^b (K^bsol), heterodimer of ….
The target is the same in experiment [3].

Where two headings read alike, the source gives them in different places.

In the case of DLRGYVYQGL (modifications not checked) [VSV-10N], in experiment [1], the Kd (usually a measure of binding affinity in units of concentration) worked out at 390 nM.

RGYVYQGLK (modifications not checked) [VSV-9C] returned a Kd in experiment [1] of 6.9 nM. This Kd is about 57-fold lower than that of the molecule before.

RGYVYQGL (modifications not checked) [[^125I]VSV-8] had a half-time of association in experiment [2] of 5 min. The molecule further displayed a Kd in experiment [3] of 33 nM.

With RGYVYQGL (modifications not checked) [VSV-8], in experiment [1], the Kd was 3.7 nM. This counts as single-digit nanomolar.

In experiment [1], LRGYVYQGL (modifications not checked) [VSV-9N] came in with an equilibrium dissociation constant (Kd) of 7.3 nM.

Molecule RGYVYQGLKS (modifications not checked) [VSV-10C] yielded a dissociation constant Kd in experiment [1] of 21 nM. This Kd lies about 2.9-fold higher than the previous one.
